Earlier results, collected in PMC9837045.
Where “and” joins values, the source holds several entries; their conditions need not be identical. Identical values can stand only once. Like-named read-outs stand apart in the source and are kept apart here.

How the values were obtained:
Activin A (Homo sapiens) = Activin A (Homo sapiens) (UniProt P08476); test: SPR
BMP9 (Homo sapiens) [1] = target: BMP9 (Homo sapiens) (UniProt Q9UK05); test: SPR
BMP9 (Homo sapiens) [2] = target: BMP9 (Homo sapiens) (UniProt Q9UK05)
BMP9 (Homo sapiens) [3] = target: BMP9 (Homo sapiens) (UniProt Q9UK05); remark: listed apart in the source
BMP9 (Homo sapiens) [4] = target: BMP9 (Homo sapiens) (UniProt Q9UK05); remark: listed apart in the source

UniProt Q9UK05, sequence (Q9UK05 320-429): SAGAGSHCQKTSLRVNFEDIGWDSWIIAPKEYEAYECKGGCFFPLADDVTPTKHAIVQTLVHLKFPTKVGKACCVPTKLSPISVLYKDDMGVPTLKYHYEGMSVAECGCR
UniProt P08476, sequence (P08476 311-426): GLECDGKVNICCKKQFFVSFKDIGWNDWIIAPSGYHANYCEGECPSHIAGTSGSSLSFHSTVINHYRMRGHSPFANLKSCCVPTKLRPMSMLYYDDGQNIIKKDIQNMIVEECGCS

Row | Substance | Kd (Activin A (Homo sapiens)) | other results
1 | BMPR2-Fc ECD (from UniProt Q13873) | 14 nM | –
2 | (ACVR2B)2-Fc ECD (from UniProt Q13705) | 0.0125 nM | –
3 | ACVR2A ECD (from UniProt P27037) | 5.7 nM | –
4 | ACVR2B-Fc ECD (from UniProt Q13705) | 0.0092 nM | Kd (BMP9 (Homo sapiens) [1]): 0.033 nM and 0.116 nM
5 | ALK2-Fc ECD (from UniProt Q04771) | – | Kd (BMP9 (Homo sapiens) [2]): 83 nM
6 | BMPR2 ECD (from UniProt Q13873) | 59 nM | –
7 | ACVR2B ECD (from UniProt Q13705) | 1.1 nM | –
8 | ALK1-ECD ECD (from UniProt P37023) | – | Kd (BMP9 (Homo sapiens) [3]): 0.0716 nM
9 | ACVR2B-Fc (single ECD) ECD (from UniProt Q13705) | 0.108 nM | –
10 | ACVR2A-Fc ECD (from UniProt P27037) | 0.13 nM | –
11 | ALK1-Fc ECD (from UniProt P37023) | – | Kd (BMP9 (Homo sapiens) [1]): 0.0313 nM; Kd (BMP9 (Homo sapiens) [4]): 0.0481 nM and 0.0455 nM
